Experimental data taken from patent US20150175697A1 (MacroGenics, published 2015).

Assays:
[1] = target: soluble CD16A (sCD16A) (human) (UniProt P08637); assay: SPR (BIAcore), receptor immobilised
soluble CD32B (sCD32B) [2] = target: T1, soluble CD32B (sCD32B) (human, UniProt P31994 43-217); assay: sandwich ELISA on conditioned medium: soluble FcRIIb-G2-Agly coated, FcRIIIa-G2-Biotin probe and streptavidin-HRP
T1 construct: extracellular domain; also called FcγRIIB; soluble CD32B ectodomain
T1 sequence (looked up): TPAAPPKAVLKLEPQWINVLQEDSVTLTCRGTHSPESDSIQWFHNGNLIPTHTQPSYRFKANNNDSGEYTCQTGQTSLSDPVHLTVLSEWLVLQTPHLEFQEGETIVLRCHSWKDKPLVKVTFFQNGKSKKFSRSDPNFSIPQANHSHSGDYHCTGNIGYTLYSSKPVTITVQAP

soluble CD32B (sCD32B) [3] = target: T1, soluble CD32B (sCD32B); assay: sandwich ELISA: sCD32B coated (sCD32B-Ig, 2 ug/ml), diabody titrated, labelled sCD16A as probe; signal needs both bindings
Protocol: The binding of eluted and purified diabodies was characterized by ELISA assay, as described in 5.4.2. 50 ul/well of a 2 ug/ml solution of sCD32B-Ig was coated on 96-well Maxisorp plate in Carbonate buffer at 4° C. over night. The plate was washed three times with PBS-T (PBS, 0.1% Tween 20) and blocked by 0.5% BSA in PBS-T for 30 minutes at room temperature. […] The plate was then incubated at room temperature for 1 hour. After washing with PBS-T three times, 50 ul/well of 0.2 ug/ml sCD16A-Biotin was added to each well. The plate was again incubated at room temperature for 1 hour. After washing with PBS-T three times, 50 ul/well of a 1:5000 dilution of HRP conjugated streptavidin (Amersham Pharmacia Biotech) was used for detection. The HRP-streptavidin was allowed to incubate for 45 minutes at room temperature. The plate was washed with PBS-T three times and developed using 80 ul/well of TMB substrate. After a 10 minute incubation, the HRP-TMB reaction was stopped by adding 40 ul/well of 1% H₂SO₄.

soluble CD32B (sCD32B) [4] = target: T1, soluble CD32B (sCD32B); assay: sandwich ELISA on conditioned medium: soluble FcRIIb-G2-Agly coated (100 ng/well), diabody titrated, FcRIIIa-G2-Biotin probe and streptavidin-HRP; signal needs both bindings
Protocol: After three days in culture, the conditioned medium were harvested and characterized by binding ELISA.
100 ng/well of soluble FcRIIb-G2-Agly was coated on 96-well Maxisorp plate in Carbonate buffer at 40° C. overnight. Plate was washed three times with PBS/0.1% Tween20 and then blocked by 0.5% BSA in PBS/0.1% Tween 20 for 30 mins at room temperature before adding diabodies. […] The plate was incubated at room temperature for 1 hour. After washed with PBS/0.1% Tween20 three times, 10 ng/well of FcRIIIa-G2-Biotin was added to the plate. The plate was incubated at room temperature for 1 hour. After washed with PBS/0.1% Tween20 three times, 50 ul of 1:5000 dilution of HRP conjugated Streptavidin (Amersham Pharmacia Biotech) was used for detection. After 45 minutes incubation at room temperature, the plate was washed with PBS/0.1% Tween20 three times and developed using TMB substrate. After 10 minutes incubation, the reaction was stopped by 1% H2SO4. The OD450 nm was read by SOFTmax program.

[5] = target: T2, human serum albumin (HSA) (human, UniProt P02768 25-609); assay: Albumin Binding Assay; x axis hE16scFv-ABD Concentration (ug/ml); albumin taken as HSA as in Table 23
T2 construct: also called HRP-human albumin

[6] = target: T2, human serum albumin (HSA); assay: as above; remark: listed apart in the source
[7] = target: T2, human serum albumin (HSA); assay: ABD-Binding Elisa; x axis Protein concentration (ug/ml); albumin taken as HSA as in Table 23
[8] = target: T2, human serum albumin (HSA); assay: HSA binding class (+++ 0.7-1.0; ++ 0.4-0.7; + 0.1-0.4)
soluble CD16A (sCD16A) [9] = target: T3, soluble CD16A (sCD16A) (human, UniProt P08637 17-208); assay: SPR (BIAcore): sCD16 immobilised, diabody injected for 60 s
T3 construct: extracellular domain; given only as soluble; immobilised in SPR, plate coat or biotin/HRP-labelled probe in ELISA; also called FcγRIIIA; sCD16A-Biotin

soluble CD32B (sCD32B) [10] = target: T1, soluble CD32B (sCD32B); assay: SPR (BIAcore), receptor immobilised
soluble CD32A (sCD32A) = target: T4, soluble CD32A (sCD32A) (UniProt P12318 34-217, limits assumed); assay: SPR (BIAcore): sCD32A (negative control) immobilised, diabody injected for 60 s
T4 construct: extracellular domain; also called sCD32A (negative control)
T4 sequence (looked up): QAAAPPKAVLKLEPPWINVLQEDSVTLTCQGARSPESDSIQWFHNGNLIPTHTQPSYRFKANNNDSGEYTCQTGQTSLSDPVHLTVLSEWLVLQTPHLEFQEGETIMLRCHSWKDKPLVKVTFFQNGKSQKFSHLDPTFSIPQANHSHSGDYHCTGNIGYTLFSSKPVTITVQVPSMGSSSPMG

soluble CD16A (sCD16A) [11] = target: T3, soluble CD16A (sCD16A); assay: sandwich ELISA on conditioned medium: soluble FcRIIb-G2-Agly coated, FcRIIIa-G2-Biotin probe and streptavidin-HRP
soluble CD32B (sCD32B) [12] = target: T1, soluble CD32B (sCD32B); assay: SPR sensorgrams with sCD32B; printed under the panel
soluble CD16A (sCD16A) [13] = target: T3, soluble CD16A (sCD16A); assay: dual ELISA: CD16A coated, DART titrated, biotinylated sCD32B detection, with 3 mg/ml HSA
soluble CD16A (sCD16A) [14] = target: T3, soluble CD16A (sCD16A); assay: dual ELISA: CD16A coated, DART titrated, biotinylated sCD32B detection, without HSA
[15] = target: T2, human serum albumin (HSA); assay: SPR sensorgrams with HSA; printed under the panel
soluble CD16A(158F) = target: T5, soluble CD16A(158F) (human, UniProt P08637 17-208); assay: SPR sensorgrams with sCD16A (158F per paragraph 834); printed under the panel
T5 construct: extracellular domain; also called CD16A(F158); sCD16A
T5 sequence (P08637 17-208): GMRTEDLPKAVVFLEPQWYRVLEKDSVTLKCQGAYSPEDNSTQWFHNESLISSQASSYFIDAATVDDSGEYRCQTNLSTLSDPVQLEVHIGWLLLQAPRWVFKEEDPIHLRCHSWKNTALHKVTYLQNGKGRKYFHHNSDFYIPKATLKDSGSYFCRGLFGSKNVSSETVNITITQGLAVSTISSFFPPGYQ

T3 sequence (P08637 17-208): as above
Chain of soluble CD16A (sCD16A) (human) (P08637 17-208): as above

h3G8 scFv
Kd [1]: 38.7 nM

B1: Hu3G8 5.1 (other)
chain 1: DIVMTQSPDSLAVSLGERATINCKASQSVDFDGDSFMNWYQQKPGQPPKLLIYTTSNLESGVPDRFSGSGSGTDFTLTISSLQAEDVAVYYCQQSNEDPYTFGQGTKLEIKGGGSGGGGQVTLRESGPALVKPTQTLTLTCTFSGFSLSTSGMGVGWIRQPPGKALEWLAHIWWDDDKRYNPALKSRLTISKDTSKNQVVLTMTNMDPVDTATYYCAQINPAWFAYWGQGTLVTVSSLGGC
chain 2: B1 chain 1
modifications: homodimer of two identical chains, joined by a disulfide between the C-terminal LGGC cysteines
notes: monospecific diabody, conditioned medium; also called Hu3G8 5.1 diabody
binding result (soluble CD32B (sCD32B) [2]): no binding (tested: 0.5 ug/ml)

B2: h2B6-h3G8 covalent bispecific diabody (CBD) (bispecific antibody)
chain 1: EIVLTQSPDFQSVTPKEKVTFTCRTSQSIGTNIHWYQQKPDQSPKLLIKEVSESISGVPSRFSGSGSGTDFTLTINSLEAEDAATYYCQQSNTWPFTFGGGTKVEIKGGGSGGGGQVTLRESGPALVKPTQTLTLTCTFSGFSLSTSGMGVGWIRQPPGKALEWLAHIWWDDDKRYNPALKSRLTISKDTSKNQVVLTMTNMDPVDTATYYCAQINPAWFAYWGQGTLVTVSSLGGC
chain 2: DIVMTQSPDSLAVSLGERATINCKASQSVDFDGDSFMNWYQQKPGQPPKLLIYTTSNLESGVPDRFSGSGSGTDFTLTISSLQAEDVAVYYCQQSNEDPYTFGQGTKLEIKGGGSGGGGQVQLVQSGAEVKKPGASVKVSCKASGYTFTNYWIHWVRQAPGQGLEWIGVIDPSDTYPNYNKKFKGRVTMTVVVSTSTAYMELRSLRSDDTAVYYCARNGDSDYYSGMDYWGQGTTVTVSSLGGC
notes: covalent heterodimer of constructs 1 and 2; also called h2B6-h3G8 CBD; h2B6-h3G8 diabody
EC50 (read off the curve) (soluble CD32B (sCD32B) [3]): ~0.05 µg/mL

B3: Hu2B6 4.5-Hu3G8 5.1 (bispecific antibody)
chain 1: B2 chain 2
chain 2: B2 chain 1
modifications: the two chains are joined by a disulfide between their C-terminal LGGC cysteines
notes: tested as conditioned medium of HEK-293 cells; also called Hu2B6 4.5-Hu3G8 5.1 biospecific diabody
EC50 (read off the curve) (soluble CD32B (sCD32B) [4]): ~0.05 µg/mL

LAEAKVLANRELDKYGVSDYYKNLADNAKTVEGVKALIDEILAALP (other, also called 65A/66D) [ABD3 I65A/N66D]
binding result [5]: binds

LAEAKVLANRELDKYGVSDYYKNAIDNAKTVEGVKALIDEILAALP (other, also called 64A/66D) [ABD3 L64A/N66D]
binding result [6]: binds

LAEAKVLANRELDKYGVSDYAKNLINNAKSVEGVKALIDEILAALP (other) [Y61A/T70S]
binding result [7]: binds

LAEAKVLANRELDKYGVSDYAKNLIDNAKTVEGVKALIDEILAALP (other, also called 61A/66D) [ABD3 Y61A/N66D]
binding result [6]: binds

LAEAKVLANRELDKYGVSDYAKNLISNAKTVEGVKALIDEILAALP (other, also called 61A/66S) [ABD3 Y61A/N66S]
binding result [7]: binds

LAEAKVLANRELDKYGVSDYYKNLINNAKSVEGVKALIDEILAALP (other) [ABD3 T70S]
HSA binding [8]: 0.7 to 1

LAEAKVLANRELDKYGVSDYYKNLISNAKTVEGVKALIDEILAALP (other) [ABD3 N66S]
binding result [7]: binds

LAEAKVLANRELDKYGVSDYYKNAANNAKTAEGVKALIDEILAALP (other, also called 64A/65A/71A) [ABD3 L64A/I65A/V71A (ABD (AAA))]
HSA binding [8]: 0.4 to 0.7

LAEAKVLANRELDKYGVSDYYKNAANNAKTVEGVKALIDEILAALP (other, also called 64A/65A) [ABD3 L64A/I65A]
binding result [6]: binds

B4: h2B6 covalent monospecific diabody (CMD) (other)
chain: EIVLTQSPDFQSVTPKEKVTFTCRTSQSIGTNIHWYQQKPDQSPKLLIKEVSESISGVPSRFSGSGSGTDFTLTINSLEAEDAATYYCQQSNTWPFTFGGGTKVEIKGGGSGGGGQVQLVQSGAEVKKPGASVKVSCKASGYTFTNYWIHWVRQAPGQGLEWIGVIDPSDTYPNYNKKFKGRVTMTVVVSTSTAYMELRSLRSDDTAVYYCARNGDSDYYSGMDYWGQGTTVTVSSLGGC
modifications: covalent homodimer: two copies of this chain, disulfide-linked through the C-terminal LGGC cysteine
notes: covalent homodimer; also called h2B6 CMD; h2B6 diabody
binding result (soluble CD16A (sCD16A) [9]): no binding (tested: 100 nM) | Kd (soluble CD32B (sCD32B) [10]): 21 nM | binding result (soluble CD32A (sCD32A)): no binding (tested: 100 nM)

B5: Hu2B6 4.5 (other)
chain 1: B4 chain
chain 2: B4 chain
modifications: homodimer of two identical chains, joined by a disulfide between the C-terminal LGGC cysteines
notes: monospecific diabody, conditioned medium; also called Hu2B6 4.5 diabody
binding result (soluble CD16A (sCD16A) [11]): no binding (tested: 0.5 ug/ml)

B6: hCD16-hCD32B ABD-DART (bispecific antibody)
chain 1: DIVMTQSPDSLAVSLGERATINCKASQSVDFDGDSFMNWYQQKPGQPPKLLIYTTSNLESGVPDRFSGSGSGTDFTLTISSLQAEDVAVYYCQQSNEDPYTFGQGTKLEIKGGGSGGGGQVQLVQSGAEVKKPGASVKVSCKASGYTFTNYWIHWVRQAPGQGLEWIGVIDPSDTYPNYNKKFKGRVTMTVVVSTSTAYMELRSLRSDDTAVYYCARNGDSDYYSGMDYWGQGTTVTVSSGGCGGGKVAALKEKVAALKEKVAALKEKVAALKEGGGNS
chain 2: EIVLTQSPDFQSVTPKEKVTFTCRTSQSIGTNIHWYQQKPDQSPKLLIKEVSESISGVPSRFSGSGSGTDFTLTINSLEAEDAATYYCQQSNTWPFTFGGGTKVEIKGGGSGGGGQVTLRESGPALVKPTQTLTLTCTFSGFSLSTSGMGVGWIRQPPGKALEWLAHIWWDDDKRYNPALKSRLTISKDTSKNQVVLTMTNMDPVDTATYYCAQINPAWFAYWGQGTLVTVSSGGCGGGEVAALEKEVAALEKEVAALEKEVAALEKGGGNSLAEAKVLANRELDKYGVSDYYKNLINNAKTVEGVKALIDEILAALP
notes: also called DART ABD fusion; hCD16-hCD32B EK ABD-DART
Kd (soluble CD32B (sCD32B) [12]): 30 nM | koff (soluble CD32B (sCD32B) [12]): 0.0072 s⁻¹ | kon (soluble CD32B (sCD32B) [12]): 240000 M⁻¹ s⁻¹ | EC50 (read off the curve) (soluble CD16A (sCD16A) [13]): ~0.06 µg/mL | EC50 (read off the curve) (soluble CD16A (sCD16A) [14]): ~0.05 µg/mL | Kd [15]: 7.1 nM | koff [15]: 0.00064 s⁻¹ | kon [15]: 90000 M⁻¹ s⁻¹ | Kd (soluble CD16A(158F)): 137 nM | koff (soluble CD16A(158F)): 0.052 s⁻¹ | kon (soluble CD16A(158F)): 380000 M⁻¹ s⁻¹
